# Article PMC11784139
# Positions count from the first letter of the chain named.
# Tests used:
# Test in all cases: EMSA
# Details in all cases: EMSA: 5 mM Tris-HCl pH 7.5, 0.1 mM EDTA, 5 mM MgCl2, 10 mM KCl, 0.2 mM DTT, 30 C, 30 min, native PAGE in 0.5x TBE; MST: 50 mM PBS pH 7.2-7.4, temperature not …
# [1] = tested on: T1, 6xHis-APR1 V303E V303E (Acinetobacter venetianus RAG-1), ORF:d17a4b85
# T1 sequence: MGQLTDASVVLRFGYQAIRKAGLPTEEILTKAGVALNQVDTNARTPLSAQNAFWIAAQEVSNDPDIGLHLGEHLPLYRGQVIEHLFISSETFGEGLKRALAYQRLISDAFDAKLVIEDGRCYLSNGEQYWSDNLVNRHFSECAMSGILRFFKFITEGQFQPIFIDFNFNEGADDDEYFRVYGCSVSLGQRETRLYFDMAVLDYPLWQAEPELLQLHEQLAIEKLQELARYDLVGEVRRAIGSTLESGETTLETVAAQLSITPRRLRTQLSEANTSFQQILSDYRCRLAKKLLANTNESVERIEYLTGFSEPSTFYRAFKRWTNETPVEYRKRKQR
# [2] = tested on: T2, 6xHis-APR1 T306L T306L (Acinetobacter venetianus RAG-1), ORF:d17a4b85
# T2 sequence: T1 sequence with E303V, T306L
# [3] = tested on: T3, 6xHis-APR1 F314S F314S (Acinetobacter venetianus RAG-1), ORF:d17a4b85
# T3 sequence: T1 sequence with E303V, F314S
# [4] = tested on: T4, MBP-APR1 L265S L265S (Acinetobacter venetianus RAG-1), ORF:d17a4b85
# T4 sequence: T1 sequence with L265S, E303V
# [5] = tested on: T5, 6xHis-APR1 F318S F318S (Acinetobacter venetianus RAG-1), ORF:d17a4b85
# T5 sequence: T1 sequence with E303V, F318S
sequence,measurement,setting,value
AGCCTACCTGATGATCAAATTGGAAAGGCGCAAATTATAGTCAATTTATTTGAAATTTACAAGACGCTCTCTTAGCAAAGCTTGTACAGATGAATTGGAAAAAACTGTCAGACAATCCTCATTTTTTTTTAACAAAAGAAGCAGAATAGTGTTGTCAGTTTGGTCAATCAACGTTAATCTAAAATTATTGTTTATTGTCACAATAACGTATCTACAGGGAAGGGCACTGC (double strand) [apR1 promoter],binding,[1],no binding
same,binding,[2],binds
same,binding,[3],no binding
same,binding,[4],no binding
same,binding,[5],no binding
